Results: the supplement of paper PMC9170038

Tested on: MS2 coat protein
Test: apparent KD of MS2 coat protein; designed switch direction (-1 OFF switch, 1 ON switch): -1; higher = weaker reporter binding
Summary of the method: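 Apparent KD, taken as the median over clusters for each design, was obtained by curve-fitting normalised cluster fluorescence. Designed RNA switches had been transcribed on Illumina chips by stalled E. coli RNA polymerase and titrated with SNAP-549-labelled MS2 coat protein, doubling from 0.7 or 1.5 nM to 3 µM.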

[1] = Eterna round: R95, input ligand: FMN 200 uM
[2] = Eterna round: R95, input ligand: microRNA oligo, concentration not stated
[3] = Eterna round: R95, input ligand: none

Sequence | apparent KD of MS2 coat protein (input ligand: FMN 200 uM) | apparent KD of MS2 coat protein (input ligand: none) | apparent KD of MS2 coat protein [1] | apparent KD of MS2 coat protein [2] | apparent KD of MS2 coat protein [3] | apparent KD of MS2 coat protein (input ligand: microRNA oligo, concentration not stated)
AAGUUACAUGAGGAUCACCCAUGUGAGGAUAUGAGUCAGUCACGGUGACGUGGCUGACUCAGAAGGCACAUAGG [JL-ex1-4.42 salish99 mod] (Eterna round: R97, puzzle: Exclusion 1) | 256 nM | 77.1 nM |  |  |  | 
AAUAAACAAGCGAGAUCCUACAUGAGGAUCACCCAUGUGCUCGUCUUAUAAAGUACUAUCACGAAAGUGAUAGUACA [Mat - Sensor v3 - turn-off var 1 - Eli Mod - D65] (puzzle: Sensor v3, turn-off variant 1) |  |  | 16.1 nM | 41.5 nM | 15.3 nM | 
AAUAAACAUGAGGAUCACCCAUGUCAGGAUAUACGAAGAAAGAAAGAAAGAAAGAAGAGUAGAAGGGAUAGGAA [Excls1-III] (puzzle: Exclusion 1) |  |  | 31.6 nM | 29.3 nM | 32.6 nM | 
AAUAAACAUGAGGAUCACCCAUGUGAGGAUAUCCAAAUAAAUAAUAAAAUAAAUAAAAGGAGAAGGCACAAUAA [JMF most obvious solution 2] (puzzle: Exclusion 1) |  |  | 71.7 nM | 198 nM | 190 nM | 
AAUAACAGAGGAUAUACUAUUUUAUGUGUUUGUUGUUUUGAACAUGAGGAUCACCCAUGUAGAAGGCUGAGUAA [JMF 40] (puzzle: Exclusion 2) |  |  |  | 24.2 nM |  | 
AAUAACAGAGGAUAUACUGUUUUAUGUAUUUAUUAUUUUAAACAUGAGGAUCACCCAUGUAGAAGGCUGAGUAA [JMF 28] (puzzle: Exclusion 2) |  |  |  | 22.6 nM |  | 
AAUAACAGAGGAUAUACUGUUUUAUGUAUUUAUUAUUUUGAACAUGAGGAUCACCCAUGUAGAAGGCUGAUUGA [JMF 75] (puzzle: Exclusion 2) |  |  |  | 31.7 nM |  | 
AAUAAGGGAGGAUAUACAUUAAAUCCUAUUUUCUUUUUGUUACAUGAGGAUCACCCAUGUAGAAGGCCCAAUAA [lam1] (Eterna round: R97, puzzle: Exclusion 2) | 54.5 nM | 23 nM |  |  |  | 
AAUAAGUGAGGAUAUGCAAUAAUAAAUAAAAUAAUAAAUAAGCAGAAGGCACAUGAGGAUCACCCAUGUAAUAA [JMF's solution 1] (puzzle: Exclusion 4) |  |  | 29.2 nM | 20.8 nM | 21.6 nM | 
AAUAAUAGGGAGGAUAUCGUAUCGGAAACGAUACGAGAAGGUCUAACAUGAGGAUCACCCAUGUUCCUCAAUAA [Fiskers Ex 6 - 5] (puzzle: Exclusion 6) |  |  | 68.3 nM | 40.6 nM | 45.7 nM | 
AAUAAUGAUAAGGAUAUCACUAGCUGCGGCUAGUGAGAAGGUAUCACAUGAGGAUCACCCAUGUGUUCCAAUAA [Ex6/6-A3] (Eterna round: R97, puzzle: Exclusion 6) | 33.1 nM | 14.1 nM |  |  |  | 
AAUAAUGUAGGAUAUACAUGAGGAUCACCCAUGUCCCACCCGUUACCUAUGACCAUAUGUAGAAGGACAAAUAA [Exy#4] (Eterna round: R97, puzzle: Exclusion 3) | 56.7 nM | 67.3 nM |  |  |  | 
AAUAAUUUUUUUUUUUUACAAGCUUUUUGCUCGUCUUAUACAUGAGGAUCACCCAUGUGGGUGAAAGAUAGAUUGUC [JMF's solution 1] (puzzle: Sensor v3, turn-off variant 2) |  |  | 30.6 nM | 18.2 nM | 44.8 nM | 
AAUACAAGCUAUUGAUCCCACAUGAGGAUCACCCAUGUAGCUGGCGGUGACACCUCCAUUACGAUAGCUCGUCUUAU [Sensor-V1 #56] (Eterna round: R97, puzzle: Sensor, turn-off variant 1) | 796 nM | 1670 nM |  |  |  | 
AAUACAAGCUAUUGAUCCCACAUGAGGAUCACCCAUGUAGGUGGCCGUGAGACCACCUUUACGAUAGCUCGUCUUAU [Sensor-V1 #51] (Eterna round: R97, puzzle: Sensor, turn-off variant 1) | 277 nM | 274 nM |  |  |  | 
AAUACACAUGAGGAUCACCCAUGUCAGGAUAUGCGGAAUAAGACUUUGGUCGAUAAAUGUAGAAGGGACGUUUA [Dr. RN-Ant/Googlypuddle] (puzzle: Exclusion 1) |  |  |  | 27.7 nM |  | 
AAUACUAACACGAAAGUGUUAGUACAAUAAGCUUGUGGUACAUGAGGAUCACCCAUGUCCUCAUAAGCUCGUCUUAU [Mat - Sensor v3 - Turn-off var 2 - D41] (puzzle: Sensor v3, turn-off variant 2) |  |  | 24.3 nM | 74.5 nM | 21.9 nM | 
AAUAGGACAGGAUAUCCGGAGUCGAACAUGAGGAUCACCCAUGUGAUGAGGAUGUUCGCUGGAGAAGGGUCGGGCU [Teonus] (puzzle: Exclusion 5) |  |  | 83.9 nM | 56.5 nM | 53.7 nM | 
AAUAGUAAUAAGGAUAUCACUAGCUUCGGCUAGUGAGAAGGUAUUACAUGAGGAUCACCCAUGUGGUCAAUUAA [E6/4-A1] (Eterna round: R97, puzzle: Exclusion 6) | 360 nM | 922 nM |  |  |  | 
AAUAGUCGGUAGGAUAUCCACGGAUGACCGGCAGGAGAAGGGCCGACUUGAGGAUCACCCAAGUAUGGUCCAAC [Ortiqumate] (Eterna round: R97, puzzle: Exclusion 6) | 25.1 nM | 13.9 nM |  |  |  | 
AAUAUCGUAGGAUAUUAAUACUCAGACAUGAGGAUCACCCAUGUUUGGUGGGUCGGAGAAUGAGAAGGGCGAUGAA [EX5 #15] (Eterna round: R97, puzzle: Exclusion 5) | 86 nM | 54.7 nM |  |  |  | 
AAUCCACAUGAGGAUCACCCAUGUGAGGAUAUGAUACUAUGUACUUCGGUACAUAGUAUCAGAAGGCACAUGAA [Ex1-3: 50] (puzzle: Exclusion 1) |  |  | 118 nM | 64.2 nM | 71.6 nM | 
AAUCCUCUGCAGGAUAUCACUGGAUGAACCAGCUGAGAAGGGCGCACAUGAGGAUCACCCAUGUUGUAAGUAGC [Eternabot (L1) Solution 80] (Eterna round: R97, puzzle: Exclusion 6) | 132 nM | 51.7 nM |  |  |  | 
AAUCUGCCGUAGGAUAUCUGAAGUUUAUAUAUAAGAGAAGGACGGACAUGAGGAUCACCCAUGUACGAUCCUGC [EX6 B.24] (Eterna round: R97, puzzle: Exclusion 6) | 19.9 nM | 11.5 nM |  |  |  | 
AAUCUGUGAGGAUAUGGUGAGUAGUGCCUGAGCGCUGCUCACCAGAAGGCACAUGAGGAUCACCCAUGUAUGAC [Mat - Exclusion 4 - Mod of JL - D2] (puzzle: Exclusion 4) |  |  |  | 27.7 nM |  | 
AAUGAGCGAGGAUAUGCAACUGUAUGACCUACGUGUGCCAGACAUGAGGAUCACCCAUGUAGAAGGUGCUUUCC [Israte] (Eterna round: R96, puzzle: Exclusion 2) | 59.9 nM | 57 nM |  |  |  | 45.3 nM
AAUGAGCGAGGAUAUGCAACUGUAUGACCUACGUGUGCCAGACAUGAGGAUCACCCAUGUAGAAGGUGCUUUCC [Israte] (puzzle: Exclusion 2) |  |  |  | 45.4 nM |  | 
